Source: IntAct's records for PubMed 31515488

B1: Dual specificity protein phosphatase 21 (Homo sapiens), Q9H596 (parent)
chain: MTASASSFSSSQGVQQPSIYSFSQITRSLFLSNGVAANDKLLLSSNRITAIVNASVEVVNVFFEGIQYIKVPVTDARDSRLYDFFDPIADLIHTIDMRQGRTLLHCMAGVSRSASLCLAYLMKYHSMSLLDAHTWTKSRRPIIRPNNGFWEQLINYEFKLFNNNTVRMINSPVGNIPDIYEKDLRMMISM
B2: Dendritic cell nuclear protein 1 (Homo sapiens), Q8TF63 (parent)
chain: MHYGAATHIQNSRSHGLETVPGHQRLERGAGGETPEFPGCHSPAPPENFGNELLPLSAPLQGLSEGLYPPGRNKTLPAGVLREGAVQFLHRGLCNSNLSSEASARPSGTQDELHSSRRKTGQTRREGARKHLVCSFRLYPFTVHTVSPGNSHLALYQVFKAVKLCPSETSFFLSRKSLKSSDPWHPPSLSPNSWNRQAGFRAWSSHLISLSLTCSDSQSRRVSSSQQPPLHSLSSHRRAAHVPE
B3: Keratin-associated protein 26-1 (Homo sapiens), Q6PEX3 (parent)
chain: MSCPNYCSGNSNSGSLRTSRHIPLTSIDLCPTSVSCGDVLYLPTSSQDHTWVTDNCQETCGEPTSCQPVHCETGNLETSCGSSTAYYVPRPCQGSSFLPASFFSSSCLPVSCRPQRYVSSGCRPLRPLLNSYQPIGDCVPNAYRPQFCLSKSCQPQNLLTSGCQPSSCLAYRPQSLHVVSSSLRPLGPLFSGCQPLTHVFSTCRPSCSGL
partner: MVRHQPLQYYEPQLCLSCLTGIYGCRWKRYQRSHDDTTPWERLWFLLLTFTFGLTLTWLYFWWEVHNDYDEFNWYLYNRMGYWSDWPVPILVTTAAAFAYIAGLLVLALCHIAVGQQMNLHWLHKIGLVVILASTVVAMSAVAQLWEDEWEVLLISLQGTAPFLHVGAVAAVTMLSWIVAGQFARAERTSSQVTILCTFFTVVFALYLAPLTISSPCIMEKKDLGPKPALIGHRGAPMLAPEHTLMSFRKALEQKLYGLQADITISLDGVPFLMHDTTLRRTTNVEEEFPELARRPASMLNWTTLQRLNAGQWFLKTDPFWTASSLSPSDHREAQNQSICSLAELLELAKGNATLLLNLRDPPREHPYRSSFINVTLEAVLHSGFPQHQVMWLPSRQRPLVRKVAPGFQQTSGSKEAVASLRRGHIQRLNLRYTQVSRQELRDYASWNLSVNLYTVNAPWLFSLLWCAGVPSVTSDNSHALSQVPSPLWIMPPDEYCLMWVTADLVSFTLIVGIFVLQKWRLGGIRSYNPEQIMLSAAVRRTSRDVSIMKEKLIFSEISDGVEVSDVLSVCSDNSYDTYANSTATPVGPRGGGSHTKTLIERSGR
B4: Vacuolar protein sorting-associated protein 37B (Homo sapiens), Q9H9H4 (parent)
chain: MAGAGSEARFAGLSLVQLNELLEDEGQLTEMVQKMEETQNVQLNKEMTLASNRSLAEGNLLYQPQLDTLKARLTQKYQELQVLFEAYQIKKTKLDRQSSSASLETLLALLQAEGAKIEEDTENMAEKFLDGELPLDSFIDVYQSKRKLAHMRRVKIEKLQEMVLKGQRLPQALAPLPPRLPELAPTAPLPYPAPEASGPPAVAPRRIPPPPPPVPAGRLATPFTAAMSSGQAVPYPGLQCPPLPPRVGLPTQQGFSSQFVSPYPPPLPQRPPPRLPPHQPGFILQ
partner: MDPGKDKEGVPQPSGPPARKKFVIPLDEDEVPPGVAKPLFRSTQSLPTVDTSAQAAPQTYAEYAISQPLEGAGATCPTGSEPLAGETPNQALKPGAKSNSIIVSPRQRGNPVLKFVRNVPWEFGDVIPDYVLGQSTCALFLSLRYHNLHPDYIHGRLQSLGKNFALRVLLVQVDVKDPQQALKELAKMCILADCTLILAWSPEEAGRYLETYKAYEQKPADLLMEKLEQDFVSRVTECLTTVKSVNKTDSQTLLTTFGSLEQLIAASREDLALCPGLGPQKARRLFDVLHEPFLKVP
B5: AP-4 complex accessory subunit RUSC1 (Homo sapiens), Q9BVN2 (parent)
chain: MLSPQRALLCNLNHIHLQHVSLGLHLSRRPELQEGPLSTPPPPGDTGGKESRGPCSGTLVDANSNSPAVPCRCCQEHGPGLENRQDPSQEEEGAASPSDPGCSSSLSSCSDLSPDESPVSVYLRDLPGDEDAHPQPSIIPLEQGSPLASAGPGTCSPDSFCCSPDSCSGASSSPDPGLDSNCNALTTCQDVPSPGLEEEDERAEQDLPTSELLEADDGKIDAGKTEPSWKINPIWKIDTEKTKAEWKTTENNNTGWKNNGNVNSSWKSEPEKFDSGWKTNTRITDSGSKTDAGKIDGGWRSDVSEEPVPHRTITSFHELAQKRKRGPGLPLVPQAKKDRSDWLIVFSPDTELPPSGSPGGSSAPPREVTTFKELRSRSRAPAPPVPPRDPPVGWALVPPRPPPPPVPPRRKKNRPGLQPIAEGQSEEGRAVSPAAGEEAPAAKEPGAQAGLEVRSSWSFAGVPGAQRLWMAEAQSGTGQLQEQKKGLLIAVSVSVDKIISHFGAARNLVQKAQLGDSRLSPDVGHLVLTTLCPALHALVADGLKPFRKDLITGQRRSSPWSVVEASVKPGSSTRSLGTLYSQVSRLAPLSSSRSRFHAFILGLLNTKQLELWFSSLQEDAGLLSLLYLPTGFFSLARGGCPSLSTELLLLLQPLSVLTFHLDLLFEHHHHLPLGPPQAPAPPGPPPALQQTMQAMLHFGGRLAQSLRGTSKEAASDPSDSPNLPTPGSWWEQLTQASRVYASGGTEGFPLSRWAPGRHGTAAEEGAQERPLPTDEMAPGRGLWLGRLFGVPGGPAENENGALKSRRPSSWLPPTVSVLALVKRGAPPEMPSPQELEASAPRMVQTHRAVRALCDHTAARPDQLSFRRGEVLRVITTVDEDWLRCGRDGMEGLVPVGYTSLVL

Variants of: B1
Conditions: with gors2_human GORASP2, Q9H8Y8

Row | Variant | effect of a mutation on the interaction
1 | S18F | with no effect

Variants of: B2
Conditions: with mdfi_human MDFI

Row | Variant | effect of a mutation on the interaction
2 | S135C | with no effect
3 | P183T | with no effect

Variants of: B3
Conditions: with gdpd5_human GDPD5, Q8WTR4

Row | Variant | effect of a mutation on the interaction
4 | S26Y | with no effect

Variants of: B4
Conditions: with ercc1_human ERCC1, P07992

Row | Variant | effect of a mutation on the interaction
5 | M151I | with no effect

Variants of: B5
Conditions: with pnma1_human PNMA1, Q8ND90
pnma1_human PNMA1, Q8ND90, sequence (Q8ND90 whole entry): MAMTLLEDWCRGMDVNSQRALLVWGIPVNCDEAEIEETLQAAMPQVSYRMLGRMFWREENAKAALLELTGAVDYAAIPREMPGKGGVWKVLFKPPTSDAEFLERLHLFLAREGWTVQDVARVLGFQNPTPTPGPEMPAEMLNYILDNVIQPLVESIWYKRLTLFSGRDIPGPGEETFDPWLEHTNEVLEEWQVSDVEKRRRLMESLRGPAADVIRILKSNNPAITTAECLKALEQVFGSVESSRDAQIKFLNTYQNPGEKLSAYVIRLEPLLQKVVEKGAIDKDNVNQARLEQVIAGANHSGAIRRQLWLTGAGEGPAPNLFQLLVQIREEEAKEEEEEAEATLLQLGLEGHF

Row | Variant | effect of a mutation on the interaction
6 | S614F | with no effect
7 | D880Y | with no effect

Variants of: B5
Conditions: with rbpms_human RBPMS

Row | Variant | effect of a mutation on the interaction
8 | S614F | with no effect
9 | A795T | with no effect

Variants of: B5
Conditions: with fam9b_human FAM9B

Row | Variant | effect of a mutation on the interaction
10 | S614F | disrupting interaction strength
11 | D880Y | with no effect
